Reference: patent US20200157232A1 (TENEOONE, published 2020)

T1: human B-Cell Maturation Antigen (BCMA) (human, UniProt Q02223 1-54, limits assumed)
T1 construct: also called CD269; TNFRSF17
T1 sequence (looked up): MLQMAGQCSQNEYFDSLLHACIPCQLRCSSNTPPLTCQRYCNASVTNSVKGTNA

B1: anti-BCMA heavy chain-only antibody 308902, bivalent form (antibody, V domains shown)
VH: EVQLLESGGGLVQPGGSLRLSCAASGFTVSSYGMSWVRQAPGKGPEWVSGIRGSDGSTYYADSVKGRFTISRDNSKNTLYLQMNSLRAEDTAVYYCAKQGENDGPFDHRGQGTLVTVSS
notes: Heavy chain-only antibody with no light chain; UniAbs were expressed in HEK cells with CH1 deleted; also called UniAb 308902 (bivalent)
B2: anti-BCMA heavy chain-only antibody 308902, monovalent form (antibody, V domains shown)
VH: B1 VH
notes: Heavy chain-only antibody with no light chain; UniAbs were expressed in HEK cells with CH1 deleted; also called UniAb 308902 (monovalent)

Experiments:
[1] = molecular target: T1, human B-Cell Maturation Antigen (BCMA); test: BioLayer Interferometry, Octet QK384, kinetics mode
Description: (§1) As used herein, the “Kd” or “Kd value” refers to a dissociation constant determined by BioLayer Interferometry, using an Octet QK384 instrument (Fortebio Inc., Menlo Park, Calif.) in kinetics mode. For example, anti-mouse Fc sensors are loaded with mouse-Fc fused antigen and then dipped into antibody-containing wells to measure concentration dependent association rates (kon). Antibody dissociation rates (koff) are measured in the final step, where the sensors are dipped into wells containing buffer only. The Kd is the ratio of koff/kon.

[2] = molecular target: T1, human B-Cell Maturation Antigen (BCMA); test: ELISA, supernatant UniAb on human BCMA ECD (Abcam ab50089), detection goat anti-human IgG HRP
Description: Supernatants of 6 antibodies were tested for binding in a standard ELISA assay to a human BCMA. Binding to recombinant BCMA protein was determined by ELISA using human BCMA ECD obtained from Abcam (ab50089). The BCMA ECD protein was used at a concentration of 2 μg/mL to capture UniAbs at 50 ng/mL. […] All antibodies were diluted in 1×TBS with 0.05% Tween-20 and 1% dry milk powder.

IgG1k = molecular target: T2, IgG1k; test: ELISA, UniAb captures human IgG1 kappa, detection goat anti-human kappa HRP
T2 construct: off-target control antigen; also called human IgG1 kappa protein

Lambda = molecular target: T3, Lambda; test: ELISA on human lambda protein
T3 construct: off-target control antigen; also called human lambda protein

BVP = molecular target: T4, BVP; test: ELISA on baculovirus protein extract (BVP)
T4 construct: polyreactivity control; a protein mixture; also called Baculo Virus Protein Extract; baculovirus protein
Description: Off-target binding to Baculo Virus Protein Extract (BVP) was conducted by ELISA as above, with the modification of using 1×PBS and 1% dry milk powder for the diluent. BVP extract was obtained from INSERM (Nantes, France).

HSA = molecular target: T5, HSA (Homo sapiens); test: ELISA on human serum albumin
T5 construct: off-target control antigen; also called human serum albumin
T5 sequence (P02768 25-609): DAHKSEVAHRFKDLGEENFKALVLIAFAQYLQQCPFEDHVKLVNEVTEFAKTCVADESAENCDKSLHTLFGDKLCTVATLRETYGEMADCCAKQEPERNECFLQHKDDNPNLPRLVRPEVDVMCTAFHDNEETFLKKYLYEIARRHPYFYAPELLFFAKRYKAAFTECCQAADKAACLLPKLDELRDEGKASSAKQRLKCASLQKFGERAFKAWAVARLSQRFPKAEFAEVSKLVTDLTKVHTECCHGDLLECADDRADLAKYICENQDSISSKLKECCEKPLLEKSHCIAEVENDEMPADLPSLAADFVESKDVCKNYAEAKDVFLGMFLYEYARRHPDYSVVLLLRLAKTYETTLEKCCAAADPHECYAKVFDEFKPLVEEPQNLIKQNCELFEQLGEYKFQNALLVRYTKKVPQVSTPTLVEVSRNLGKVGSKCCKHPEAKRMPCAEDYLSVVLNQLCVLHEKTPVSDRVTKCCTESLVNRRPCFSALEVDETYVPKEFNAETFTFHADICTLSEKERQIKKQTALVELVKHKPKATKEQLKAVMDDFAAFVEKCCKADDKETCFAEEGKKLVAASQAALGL

[3] = molecular target: T1, human B-Cell Maturation Antigen (BCMA); test: BioLayer Interferometry, Octet QK384, kinetics mode; bivalent form
Description: as §1

[4] = molecular target: T1, human B-Cell Maturation Antigen (BCMA); test: BioLayer Interferometry, Octet QK384, kinetics mode; monovalent form
Description: as §1

Row | Binder | koff [1] [s⁻¹] | kon [1] [M⁻¹ s⁻¹] | ELISA Binding Ratio (expt signal / dilutent only) [2] | ELISA Binding Ratio (expt signal / dilutent only) (IgG1k) | ELISA Binding Ratio (expt signal / dilutent only) (Lambda) | ELISA Binding Ratio (expt signal / dilutent only), BVPscore (BVP) | ELISA Binding Ratio (expt signal / dilutent only) (HSA) | Kd [3] [nM] | Kd [4] [nM]
1 | B1 | 0.000177 | 3.38e+06 | 868 | 1.1 | 1.1 | 1.1 | 0.8 | 0.053 | –
2 | B2 | 0.000719 | 923000 | – | – | – | – | – | – | 0.779
